# ± gives the standard deviation of the averaged measurements.
# B1: library; a variant is named by its letters at N, in order (parent)
# chain: GAGACCGCAACTGAAAAGTTGTGGNNNNNATAGTGAGTCGCTGCCTGCAAAGACACAACT
# Variants of: B1
# Test: ligation selection enrichment (abundance after / before one-round selection) (fold); higher = more template-directed ligation activity
# Settings: with T7Psub CACGGAUGCUAAUACGACUCACUAUA; MgCl2 25 mM; 42 °C; 4 h; pH 8.5
# Outline: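 In each of two independent experiments, 6 μM RNA substrate was reacted for 4 h at 42 °C with 0.75 μM of a T7-transcribed RNA ligase library randomized at five core positions, in buffer containing 50 mM EPPS pH 8.5 and 25 mM MgCl2. Only reads scoring ≥30 in quality at all randomized positions were counted after MiSeq sequencing. Each enrichment value is the ratio of abundance after ligation to abundance before ligation.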
row,Variant,ligation selection enrichment
1,GAGACCGCAACTGAAAAGTTGTGGTGCTAATAGTGAGTCGCTGCCTGCAAAGACACAACT [TGCTA],0.17 ± 0.012
2,GAGACCGCAACTGAAAAGTTGTGGCGCTAATAGTGAGTCGCTGCCTGCAAAGACACAACT [CGCTA],0.127 ± 0.032
3,GAGACCGCAACTGAAAAGTTGTGGCGCTCATAGTGAGTCGCTGCCTGCAAAGACACAACT [CGCTC],0.0791 ± 0.025
4,GAGACCGCAACTGAAAAGTTGTGGGGCTCATAGTGAGTCGCTGCCTGCAAAGACACAACT [GGCTC],0.149 ± 0.0062
5,GAGACCGCAACTGAAAAGTTGTGGTGCTCATAGTGAGTCGCTGCCTGCAAAGACACAACT [TGCTC],0.117 ± 0.022
6,GAGACCGCAACTGAAAAGTTGTGGAGCTCATAGTGAGTCGCTGCCTGCAAAGACACAACT [AGCTC],0.104 ± 0.0069
7,GAGACCGCAACTGAAAAGTTGTGGGGCTGATAGTGAGTCGCTGCCTGCAAAGACACAACT [GGCTG],0.393 ± 0.032
8,GAGACCGCAACTGAAAAGTTGTGGAGCTGATAGTGAGTCGCTGCCTGCAAAGACACAACT [AGCTG],0.198 ± 0.0052
9,GAGACCGCAACTGAAAAGTTGTGGTGCTGATAGTGAGTCGCTGCCTGCAAAGACACAACT [TGCTG],0.17 ± 0.017
10,GAGACCGCAACTGAAAAGTTGTGGCGCTGATAGTGAGTCGCTGCCTGCAAAGACACAACT [CGCTG],0.141 ± 0.026
11,GAGACCGCAACTGAAAAGTTGTGGTGCTTATAGTGAGTCGCTGCCTGCAAAGACACAACT [TGCTT],0.0805 ± 0.021
12,GAGACCGCAACTGAAAAGTTGTGGGGCTTATAGTGAGTCGCTGCCTGCAAAGACACAACT [GGCTT],0.164 ± 0.12
13,GAGACCGCAACTGAAAAGTTGTGGAGCTTATAGTGAGTCGCTGCCTGCAAAGACACAACT [AGCTT],0.149 ± 0.13
14,GAGACCGCAACTGAAAAGTTGTGGCGCTTATAGTGAGTCGCTGCCTGCAAAGACACAACT [CGCTT],0.126 ± 0.017
15,GAGACCGCAACTGAAAAGTTGTGGCGGAAATAGTGAGTCGCTGCCTGCAAAGACACAACT [CGGAA],1.02 ± 0.075
16,GAGACCGCAACTGAAAAGTTGTGGGGGAAATAGTGAGTCGCTGCCTGCAAAGACACAACT [GGGAA],6.049 ± 0.019
17,GAGACCGCAACTGAAAAGTTGTGGTGGAAATAGTGAGTCGCTGCCTGCAAAGACACAACT [TGGAA],5.31 ± 0.71
18,GAGACCGCAACTGAAAAGTTGTGGAGGAAATAGTGAGTCGCTGCCTGCAAAGACACAACT [AGGAA],2.74 ± 0.034
19,GAGACCGCAACTGAAAAGTTGTGGAGGACATAGTGAGTCGCTGCCTGCAAAGACACAACT [AGGAC],14.4 ± 2.2
20,GAGACCGCAACTGAAAAGTTGTGGCGGACATAGTGAGTCGCTGCCTGCAAAGACACAACT [CGGAC],3.77 ± 0.4
21,GAGACCGCAACTGAAAAGTTGTGGGGGACATAGTGAGTCGCTGCCTGCAAAGACACAACT [GGGAC],30.7 ± 5.3
22,GAGACCGCAACTGAAAAGTTGTGGTGGACATAGTGAGTCGCTGCCTGCAAAGACACAACT [TGGAC],24.7 ± 2.8

row,Variant,ligation selection enrichment
1,GAGACCGCAACTGAAAAGTTGTGGTGGAGATAGTGAGTCGCTGCCTGCAAAGACACAACT [TGGAG],1.119 ± 0.0088
2,GAGACCGCAACTGAAAAGTTGTGGGGGAGATAGTGAGTCGCTGCCTGCAAAGACACAACT [GGGAG],1.05 ± 0.051
3,GAGACCGCAACTGAAAAGTTGTGGAGGAGATAGTGAGTCGCTGCCTGCAAAGACACAACT [AGGAG],0.806 ± 0.1
4,GAGACCGCAACTGAAAAGTTGTGGCGGAGATAGTGAGTCGCTGCCTGCAAAGACACAACT [CGGAG],0.459 ± 0.021
5,GAGACCGCAACTGAAAAGTTGTGGTGGATATAGTGAGTCGCTGCCTGCAAAGACACAACT [TGGAT],233 ± 62
6,GAGACCGCAACTGAAAAGTTGTGGGGGATATAGTGAGTCGCTGCCTGCAAAGACACAACT [GGGAT],167 ± 32
7,GAGACCGCAACTGAAAAGTTGTGGAGGATATAGTGAGTCGCTGCCTGCAAAGACACAACT [AGGAT],95.7 ± 0.79
8,GAGACCGCAACTGAAAAGTTGTGGCGGATATAGTGAGTCGCTGCCTGCAAAGACACAACT [CGGAT],57.6 ± 1.5
9,GAGACCGCAACTGAAAAGTTGTGGGGGCAATAGTGAGTCGCTGCCTGCAAAGACACAACT [GGGCA],0.298 ± 0.033
10,GAGACCGCAACTGAAAAGTTGTGGAGGCAATAGTGAGTCGCTGCCTGCAAAGACACAACT [AGGCA],0.255 ± 0.066
11,GAGACCGCAACTGAAAAGTTGTGGTGGCAATAGTGAGTCGCTGCCTGCAAAGACACAACT [TGGCA],0.252 ± 0.025
12,GAGACCGCAACTGAAAAGTTGTGGCGGCAATAGTGAGTCGCTGCCTGCAAAGACACAACT [CGGCA],0.177 ± 0.036
13,GAGACCGCAACTGAAAAGTTGTGGTGGCCATAGTGAGTCGCTGCCTGCAAAGACACAACT [TGGCC],0.286 ± 0.041
14,GAGACCGCAACTGAAAAGTTGTGGGGGCCATAGTGAGTCGCTGCCTGCAAAGACACAACT [GGGCC],0.243 ± 0.0042
15,GAGACCGCAACTGAAAAGTTGTGGAGGCCATAGTGAGTCGCTGCCTGCAAAGACACAACT [AGGCC],0.21 ± 0.013
16,GAGACCGCAACTGAAAAGTTGTGGCGGCCATAGTGAGTCGCTGCCTGCAAAGACACAACT [CGGCC],0.134 ± 0.031
17,GAGACCGCAACTGAAAAGTTGTGGGGGCGATAGTGAGTCGCTGCCTGCAAAGACACAACT [GGGCG],0.626 ± 0.07
18,GAGACCGCAACTGAAAAGTTGTGGAGGCGATAGTGAGTCGCTGCCTGCAAAGACACAACT [AGGCG],0.527 ± 0.12
19,GAGACCGCAACTGAAAAGTTGTGGTGGCGATAGTGAGTCGCTGCCTGCAAAGACACAACT [TGGCG],0.345 ± 0.019
20,GAGACCGCAACTGAAAAGTTGTGGCGGCGATAGTGAGTCGCTGCCTGCAAAGACACAACT [CGGCG],0.328 ± 0.1
21,GAGACCGCAACTGAAAAGTTGTGGGGGCTATAGTGAGTCGCTGCCTGCAAAGACACAACT [GGGCT],0.765 ± 0.27
22,GAGACCGCAACTGAAAAGTTGTGGTGGCTATAGTGAGTCGCTGCCTGCAAAGACACAACT [TGGCT],0.75 ± 0.2
